{
  "source": "the DeepSol protein solubility set",
  "data": [
    {"experiment": "soluble on expression in E. coli; label from the status in PepcDB or PDB records", "values": [
      {"sequence": "MKKYQQLFKQIQETIQNETYAVGDFLPSEHDLMEQYQVSRDTVRKALSLLQEEGLIKKIRGQGSQVVKEETVNFPVSNLTSYQELVKELGLRSKTNVVSLDKIIIDKKSSLITGFPEFRMVWKVVRQRVVDDLVSVLDTDYLDMELIPNLTRQIAEQSIYSYIENGLKLLIDYAQKEITIDHSSDRDKILMDIGKDPYVVSIKSKVYLQDGRQFQFTESRHKLEKFRFVDFAKRKK", "soluble on expression in E. coli": "not soluble"},
      {"sequence": "MSLKINNLVDLHCHILPAIDDGSPSLEASLELARQAVADGIRYILATPHHMDRHYLNHAGDVVAAVEAFQAELDVNDIPLTIFPGQEVHLNGQLMEKVDDLLSIDTGRHYLLLELPHEMVPSYLDEMIFQLSCEGITPVIAHPERNAQIIAEPQRLYKLAEDGVLAQVTATSLVGTFGEQVQRTAKEFVKCGLVQVVASDAHTLKNRGFAMTKAYQVLNEMDSKYPERFATNARDLLNGEQIEMGQIEIPRKQRKHWLFEGHHHHHH", "soluble on expression in E. coli": "soluble"},
      {"sequence": "MGSDKIHHHHHHMLWLLMTTGKCNLKCDYCGGSFPDNVVPYGIKYDINSVKKLIEKDKDSTIIFYGGEPLLNYKFVMAVLDNVRAKRYGIQTNGIAVRLLPERYWRKINVALLSIDGREEITNKHRGKGIYKAVLRSAKYLKDLGVETIARMTVTQDTDIFTDVMHLIDLGLFDKVHWQLDVIWSEEWDFKSWSFSYLNGIKRLTDYFLSELRKGRVVKIIPILGVISAHFFEGYKGSPCGAGYSSVTVTPDGRILSCPIAVREKWAELGNVNLGYRLLEDPLPDDCKRCEFKRYCGGRCLYAQKERYWGEEGFKAVDEVNKEYLRTVLSIIPEIERLIRDGYIRLSDLYYNPILDSTEIIP", "soluble on expression in E. coli": "not soluble"},
      {"sequence": "MSLSGIINNREYRQKVLKEIILELHNGKSVDEVRKRFQELIKGVSTKEISEMEAQLIKEGMKVEEIQRLCDVHAAVFKGSIDQIHHPEKEEGHPVSVLKKENEAVKNYIQSHLTPNLEEIKKSDSHSTRLKLMENISMLFDLDKHYSRKENLIFPYLEKYGITAPPKVMWGVDDEIREALKECKEVINSANKTPNEITEKVESTLKRIEEMIFKEESILLPMCIDTFSEDEWLDIESESDEIGYCLISPSEKWKPKRENVEEKEKSKLANENSEGYIKFDTGILRVNELSAILDTLPLDITFVDKDGTVKYFSGGSERIFARTRAVIGRKVQNCHPPASVHIVEKVVEDLKSGKKDHEDFWLHMGELYVFIRYYAVKDNKGEFIGVLEVTQNIKEIQEITGEKRLIEEGHHHHHH", "soluble on expression in E. coli": "soluble"},
      {"sequence": "MTPWLGLIVLLGSWSLGDWGAEACTCSPSHPQDAFCNSDIVIRAKVVGKKLVKEGPFGTLVYTIKQMKMYRGFTKMPHVQYIHTEASESLCGLKLEVNKYQYLLTGRVYDGKMYTGLCNFVERWDQLTLSQRKGLNYRYHLGCNCKIKSCYYLPCFVTSKNECLWTDMLSNFGYPGYQSKHYACIRQKGGYCSWYRGWAPPDKSIINATDP", "soluble on expression in E. coli": "not soluble"},
      {"sequence": "AHHHHHHGSKFNEFKTPQIDPIFDLYVAYGYVESLIRGGAKEATLIPHGASYLIQTDVSNEEFRHGLVDALSEMLSLHIALARHSPREGGKLVSDADFSAGANINNVYWDSVPRNLEKVMKDLEKKRSVKGTATIPITLMPSAGKYMLKHFGVQGGNPIKVDLLNYALAWVGFHYYTPYIKYAKGDTTWIHIYQIAPVEEVDMISILSLKDLKMHLPHYYESNLDFLINRRLALLYHLLHSESLGALELFTEKEFVIHSYTLERSGNNQAIRSFEEEEIGKLMDFLWKLKRRDFYHAIKFIDDLLKKATEGALALIDAIMNERLEGFYTALKLGKKAGVVSSREIVAALEDIICER", "soluble on expression in E. coli": "not soluble"},
      {"sequence": "MVLRDKMILLDENTKAIVQGITGRQGSFHTKKMLECGTKIVGGVTPGKGGQNVHGVPVFDTVKEAVKETDANASVIFVPAPFAKDAVFEAIDAGIELIVVITEHIPVHDTMEFVNYAEDVGVKIIGPNTPGIASPKVGKLGIIPMEVLKEGSVGMVSRSGTLTYEIAHQIKKAGFGVSTCVGIGGDPIVGLRYKEVLDLFEKDDETEAIVMIGEIGGGAEEEAAKFIEKMKKPVIGYIAGQSAPEGKRMGHAGAIVEKGKGTAESKMKALEEAGAYVAKNISDIPKLLAGILGK", "soluble on expression in E. coli": "soluble"},
      {"sequence": "MGSDKIHHHHHHMFALAASNMILRGDGKANLHQSSCFMTDFQDLIKNPKPETGLKRPNVGFLNPPYAQSKSDAELHELYFVKEMLDMLAEGGTGIAIIPVSCVIAPSKAKSEIVKYHRLKAVMSMPSELFYPVGTVTCIVVFEAHKPHFQTVVIDPDTQEEISTKKACRKTWFGYWRDDGFEKTKHLGRIDLYDRWQGIKARWLEHYLNNEVHTGESVTAFVTDNDEWVAEAYLETDYSKITRADFEQVVREFALFQLLGAEVGPTENLDNESYEDDDNNDFGDDE", "soluble on expression in E. coli": "not soluble"},
      {"sequence": "MGSDKIHHHHHHMAKIDFRNKINWRRRFRSPPRVETERDILRIFESDRGRIVNSPAIRRLQQKTQVFPLERNAAVRTRLTHSLEVQQVGRYIAKEVLSRLKELRLLEEYGLEELTGPFESVVEMACLMHDIGNPPFGHFGEAAINDWFRQRLAPGDALGQPLTDDRCEVQALRLHDGETSLNALRRKVRQDLCSFEGNAQGIRLVHTLMRMNLTWAQVGCILKYTRPAWWSEETPASHSYLMKKPGYYLAEEEYVARLRKELDLAPYNRFPLTWIMEAADDISYCVADLEDAVEKRIFSAEQLYQHLYDAWGSHEKGSLFSQVVENAWEKSRANYLKQSAEDQFFMYLRVNTLNKLVPYAARRFIDNLPAIFTGDFNHALLEDDSDCSQLLELYKNVAMKQVFSHPDVEQLELQGYRVISGLLDIYQPLLKLSLEDFSELVAQERVRRLPIASRLYQKLSTRHRLAYVEAVNKLARTAPEFALMEYYYRCRLIQDYISGMTDLYAWDEYRRLMAVE", "soluble on expression in E. coli": "not soluble"},
      {"sequence": "MASYSQFLTKAQEDELRSIANAIVTPGKGILAADESTGSMDKRLNSIGLENTEENRRKYRQLLFTAGADLNKYISGVIMFHETFYQKTDDGKPFTALLQEQGIIPGIKVDKGVVPMAGTIGEGTTQGLDDLNARCAQYKKDGAQFAKWRCVHKISSTTPSVTALKEIASNLARYASICQQNGLVPIVEPEILPDGEHCLARGQKITETVLSYVYHALNEHHVFLEGTLLKPNMVTSGQSFTGEKPSNADIGLATVTALQRGVPSAVPGVVFLSGGQSEEDATLNLNAINQVSGKKPWALTFSYGRALQASCLAKWAGKDENIAAAQEVLLHRAQVNSLASVGKYTGDASADAAASQSLFVANHSY", "soluble on expression in E. coli": "soluble"},
      {"sequence": "MGSDKIHHHHHHMSEFYGAQHRQWQEHFDGVAMADRVRELIVLPSIPEEHAGFIGSRDFFFLSTIDHRGFPTCSYKGGQPGFVKILDDTTLAFPSLDGNSMYLSMGNLSLNPKIGMLFIDFETPHRIRVHGTASVKPDDTLLAEYQEAELIVRIKIEEIFVNCPRYIHKHQRVQHSPYVPQAGCTTRTPQWKRLDSVQDVLRQPDLEKVSRMGGPITIEEYMELVLQGDA", "soluble on expression in E. coli": "not soluble"},
      {"sequence": "MGSDKIHHHHHHMIKRLKIKNFKSYRDSEFEFEKVSIVVGPNGSGKTNLVDAFSFLKQLIRPLSYPPYPFIRWGDYKNVVFMQDENLDISFEIDGEYKGKDYHYEISLNKLQIKKEIINFDSYSMERRGNVIRYENKEMTIPDNLSVFNLFFAQPFIIAYNLNFTLPPELLNFMTNFLNDVGVFRIVPQIAVSPVHFTFPEALDENGRGLVKVISNNLSRINETKQVYDFLVENNISLRPVFTEDGNIRLHFIEKSENNKELILLPASVPDGFIKMLTIIIAVYLLKMSTIIIDEIENSLHLKYIERLVDIMRYSDSQFIATTHSPLIIDFMDPFRNNNS", "soluble on expression in E. coli": "not soluble"},
      {"sequence": "MSLILFFYFMVLSEACMRTVAPEDVYISSTFPFEDFTTEAVVTTDSSTISQLTTETTMETVETHIFYVTCKNRYPISNRNCLINRHTDDFFCFILPVDACMRTVPPEDVYISITLPYEDFTTESNEIAVTTDSSTVPQLVTETTEIPTATTTPGWSSKTELHWKISKILNTK", "soluble on expression in E. coli": "not soluble"},
      {"sequence": "MGSDKIHHHHHHMHLSINLLPILSQHQVSFNTDIYCLEKFMFQIDTLIAAKIVDRTMKIIGHNINVMNAQAVILGSGDIDRIGTVHEGALLAISQNRNVEISQAIASNLHGVKPGLNLPLHYHGQVVGVIGITGEPDTLSHYGELLKMTAEMIVEQANLQEQLQWQNRQTEEFISQLIHANEQDLPSLQQWALQLGIDLSVPRVAAIIELDSNNPLYQQDNQALKQVLYLLQNPVRDNLIAMTSLTQLVILKPAFLDGKQFDPELENQRINKLLKRLPANMQLSLHISLGHYFGGELGISYSYRTAKETLDIGKKLHPTKTKYLYQDYSLQVLLSGLRHHWRGNALAGPYLKLIEVDNNQQLQKTLAAYLDHMGDIQACANSLFIHRNTLRYRLDKIQTITNIDLRSFNGLLSLYLGQLIHQPST", "soluble on expression in E. coli": "not soluble"},
      {"sequence": "SLTVFQPLVPPDWKMNLRDGELYAQVAFSAAPEQGFRAGGHGVLKGGSAWMPDNQVNGVDFVLPFRFADGAWHLGTRGPVTLRIAEVINLVTAKNITADLQGRYPWTEEEPLLLTDVSVDVLGGNVLMKQLRMPQHDPALLRLNNLSSSELVSAVNPKQFAMSGAFSGALPLWLNNEKWIVKDGWLANSGPMTLRLDKDTADAVVKDNMTAGSAINWLRYMEISRSSTKINLDNLGLLTMQANITGTSRVDGKSGTVNLNYHHEENIFTLWRSLRFGDNLQAWLEQ", "soluble on expression in E. coli": "not soluble"},
      {"sequence": "MDHTVLIALLLAFCSTASAVDSEGTDFVFAFVRNANPNITNQILSATVLNQNAQDCKFTLTYRPDYRKATSPENITVTVSANSAVEVPVLSWYGWNYANENLQDDVFLTLTGFSTCPVTVLANNYDNVTGQGDTYMVLPLTWGSTSLTFSLPPAVLSTDQQYEQIYVLPTTPGVTKVSVFEIGNAASVYTFNATFGNAPAAYIGARTPDARPRTYHVMSDKNVLVVAGVTCAGADANSCDHVAYMPHPPPSSDCYTYDYYDDDHVSYLPTTSQFFTDIPGTCSVGQNITRTLNDGVSYTITIKPQMESPLWSIKTTNANQLAVAFHNGGSNIHIARYYDGTKFNSRGAFAATSPSMTQFHNLNTPFFTRNANDTIEIYCTVLSCSSITIDGVKIQITDTKVVQKVDDISYYIFVNTIANPGYHQISLKQQGSYAFFVYGKNKLYSYGYEGGANKPTVVLAPPTTPGPTFYPVTTVSTMSPPTTVTVPTTPTPVPTTTNTPPANPTTATPTTVGTMTPSTGTTTVPVPTTTGSPTTQTTAPVTKPTVPSSTTQTAPPVTTPTSQPPVTTTSLLTTLTTPTVPVTTTVVPSSATVPTTPPTTVTVAATTTSKAPVVTTSPTLAPTSPTKLPTSPPSTVGTSPTAPANLTTPTTAPVNPTSSTTAPTAPVNPTSPTTAPTVPPVTTTTPTTTTSTTTTTTTTTTTTQTTPTTPVVTTPSTITPTTRPVTQPASQPATQPATTPTTTIPTTTQFSSAVSVALPVVLTMFFALF", "soluble on expression in E. coli": "not soluble"},
      {"sequence": "MSLRAQGEVVLSIDGEPVKRSEFEYYFRKSSHRTPLSFLPSFINYKLKVRYAHDMGIDTLSVFRRQVDWYRGKLLRTYLADAEKEEQAARRLYLQGEQRLQANDWIKIAHISKYLSQNASRQEEMRVRQQMDSVYEALREGADFATLARRYSDDEACKNVGGVLPWMPVNKNMQEWIDKLESLERNKISAPFYSPMGIHIVKWIDRRQGVSFEEKREQLLNYLEKNGNCTWKELSAEQKEELEFRVQELQDGLLAAYLSQKYQSGDEAWNEDDLERFFKQHKSDYAWELPHYRGAVIHCKDRKTASAIKKQLKKKPVSQWKDILHTLTGDDASSKVRMEAGVFQIGTNRYIDKLVFKCGSFQPEPDLPYTFVMGKKLKKGPESYEDVREAVVKDYLTVYEDAWLKDLKRKYKVEINQEVLKTVNNNGSEGHHHHHH", "soluble on expression in E. coli": "not soluble"},
      {"sequence": "MGSDKIHHHHHHMNESSTHDSVADDPTEVSTDTVLDIALSLFSELGFSDAKLEAIAKKSGMSKRMIHYHFGDKRGLYICCLEEAVRRLRPTAEEMYLASAVPVEGVRTIVEAVFHRYVQHPEAVRMLQMENLHHYGKVAEASPLSDQSAITLQLDRLLMLGQDAGAFRPGISAQDVFTLIASIAVFRINSRSTTLNLYGIDMMNGDNTDGMRRMAVDTVLAFLTSNLKSADEDSYLSRPLLSTVTEHVDEEGSYEVAADPFS", "soluble on expression in E. coli": "not soluble"}
    ]}
  ]
}
